Molecular target: human recombinant prion protein hrPrP (PrP23-231) (Homo sapiens) (UniProt P04156)
Assay: FP filter
[1] = no tRNA, 250 mM NaCl, 2 mM MgCl2, 37 C

| Substance | Kd [1] [nM] | Kd (with tRNA competitor) [nM] |
| --- | --- | --- |
| MDV (244 nt) | 7.6 | 170 |
| MNV (86 nt) | 38 | 1000 |

— patent US20050239072
